Results as given in publication doi:10.1101/2021.08.22.457263, “Reconstitution of surface lipoprotein translocation reveals Slam as an outer membrane translocon in Gram-negative bacteria” (bioRxiv, 2021).

Molecular target: T1, M. catarrhalis transferrin binding protein B with C-terminal flag-tag (Mcat TbpB-flag) (Moraxella catarrhalis, UniProt P0DTW7 21-706, lipidated)
T1 sequence: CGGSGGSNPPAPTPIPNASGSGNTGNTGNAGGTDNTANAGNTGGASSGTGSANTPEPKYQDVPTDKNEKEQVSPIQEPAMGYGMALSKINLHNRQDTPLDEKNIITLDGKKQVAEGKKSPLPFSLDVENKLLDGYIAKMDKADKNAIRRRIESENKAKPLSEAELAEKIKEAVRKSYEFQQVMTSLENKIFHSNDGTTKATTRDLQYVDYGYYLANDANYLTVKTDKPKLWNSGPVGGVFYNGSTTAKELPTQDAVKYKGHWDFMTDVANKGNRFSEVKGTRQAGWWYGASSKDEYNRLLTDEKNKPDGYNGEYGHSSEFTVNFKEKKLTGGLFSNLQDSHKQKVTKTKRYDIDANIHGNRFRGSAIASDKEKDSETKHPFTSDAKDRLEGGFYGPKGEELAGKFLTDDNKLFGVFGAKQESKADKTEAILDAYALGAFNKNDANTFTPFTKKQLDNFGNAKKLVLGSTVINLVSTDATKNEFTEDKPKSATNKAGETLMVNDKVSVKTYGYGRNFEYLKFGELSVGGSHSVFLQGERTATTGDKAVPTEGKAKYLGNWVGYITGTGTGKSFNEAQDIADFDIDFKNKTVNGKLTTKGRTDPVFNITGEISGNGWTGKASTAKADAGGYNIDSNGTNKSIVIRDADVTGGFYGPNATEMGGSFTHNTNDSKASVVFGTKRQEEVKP
Experiment: cell-based or functional assay

B1: His-tagged E. coli Skp, purified (natural protein, UniProt P0AEU7 21-161, looked up)
chain: ADKIAIVNMGSLFQQVAQKTGVSNTLENEFKGRASELQRMETDLQAKMKKLQSMKAGSDRTKLEKDVMAQRQTFAQKAQAFEQDRARRSNEERGKLVTRIQTAVKSVANSQDIDLVVDANAVAYNSSDVKDITADVLKQVK
**Q.** Which “protection of urea-unfolded purified TbpB from proteinase K with empty liposomes, Skp added against SurA added” value does the source give for B1 here?
**A.** 2 fold
